Molecular target: cynomolgus CD3εδ Fc heterodimer (Cy CD3ε Fc / CD3δ Fc-HIS) (cynomolgus) (UniProt Q95LI8)
Test: BLI (ForteBio), pH 6.0

Chain of cynomolgus CD3εδ Fc heterodimer (Cy CD3ε Fc / CD3δ Fc-HIS) (cynomolgus) (chain, as listed by the source mutant, chain 1 of 2): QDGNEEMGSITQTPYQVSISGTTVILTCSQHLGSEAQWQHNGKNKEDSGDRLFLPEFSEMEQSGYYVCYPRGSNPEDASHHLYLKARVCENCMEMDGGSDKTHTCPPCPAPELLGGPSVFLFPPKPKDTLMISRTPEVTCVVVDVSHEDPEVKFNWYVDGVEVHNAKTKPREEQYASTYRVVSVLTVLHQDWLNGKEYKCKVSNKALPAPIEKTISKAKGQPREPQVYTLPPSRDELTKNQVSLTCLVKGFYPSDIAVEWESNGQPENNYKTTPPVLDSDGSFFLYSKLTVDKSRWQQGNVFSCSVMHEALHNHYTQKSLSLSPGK
Chain of cynomolgus CD3εδ Fc heterodimer (Cy CD3ε Fc / CD3δ Fc-HIS) (cynomolgus) (Q95LI8 22-100, stated change not applied, chain 2 of 2): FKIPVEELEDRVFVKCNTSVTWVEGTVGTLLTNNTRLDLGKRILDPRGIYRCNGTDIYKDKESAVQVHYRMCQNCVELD

Kd: 79.8 nM | kon: 136000 M⁻¹ s⁻¹
B1: SAD10320_P04_E12 (antibody, V domains shown)
VH: QVQLVQSGAEVKKPGASVKVSCKASGFNIKDYYMHWVRQAPGQRLEWMGWIDLENANTIYDAKFQGRVTITRDTSASTAYMELSSLRSEDTAVYYCARDAYGHTFYDVWGQGTLVTVSS
VL: DIVMTQSPDSLAVSLGERATINCKSSQSLLNARTGKNYLAWYQQKPGQPPKLLIYWASTRESGVPDRFSGSGSGTDFTLTISSLQAEDVAVYYCKQSYHVRTFGGGTKVEIK

— patent US20220380463A1
